Results published in the DeepSol protein solubility set.

Assay: soluble on expression in E. coli; label from the status in PepcDB or PDB records
For “MGSDKIHHHHHHMTSVTPCASSSSEMNDFLQAHPDTQYVDLLISDMNGVVRGKRIERASLHKVYEKGINLPASLFALDINGSTVESTGLGLDIGDADRICFPIPGTLSDEPWQKRPTAQLLMTMHELDGQPFFADPREVLRQVVSKFDDLGLTICAAFELEFYLIDQDNLNGRPQPPRSPISGKRPQSTQVYLIDDLDEYADCLQDMLEAAKEQGLPADAIVKESAPAQFEVNLHHVADPLKACDYAILLKRLIKNVAYDHEMDTTFMAKPYPGQAGNGLHVHISLLDKKTGKNIFASDDPLQSDTLRHAIGGVLETMPASMAFLCPNINSYRRFGAQFYVPNAPSWGLDNRTVAVRVPTDSSENVRLEHRVAGADANPYLMLAAILAGVHHGLTNKVEPEAPIEGNSYEQLEQSLPNNLRDALRALDDSEVLNQYISPDYIDIFVACKESELAEFEVSISDLEYNWYLHTV”, the “soluble on expression in E. coli” value was “not soluble”. For “MFNFEKFWQHFNDEMRARFNEVAYNAWFKNTKPISYNQKTHELKIQVQNPVAKGYWEKNLSSQLIQSAYGYAGVELLPVFQISEDSDTPERIVTPEPQHNLQTTPTRAPQREFAKDLKLNEKYTFDNFVQGEGNKLAAGAALAVADSPGSFYNPLFIFGGVGLGKTHLMQAIGHQMLVERPNAKVVYIQSETFVNDFINSIKNKTQDKFREKYRTCDLLLVDDIQFFAKKEGIQEEFFHTFETLYNDQKQIVMTSDRLPTEIPDLSERLVSRFTWGLQVEITPPDLETRIAILRRKAEAEGLTIDDDTLDYIASQVDTNIRELEGALVKVQAYATIEKADIDINLAREALVDLKLVQKNRGLQIPKIQEVVANYFQTSTAELKGKKRVRQIVIPRQIAMYLSRELTDASLPKIGQEFGGKDHTTVMHAYDKIDKQMKTDADIKTAVFDLKQMLEHLEHHHHHH”, the “soluble on expression in E. coli” value was “not soluble”. With “TSKETFTHYQPQGNSDPAHTATAPGGLSAKAPAMTPLMLDTSSRKLVAWDGTTDGAAVGILAVAADQTSTTLTFYKSGTFRYEDVLWPEAASDETKKRTAFAGTAISIV” the “soluble on expression in E. coli” value was “soluble”. In the case of “MSLYFSGEPAQIAEIKRLASGAVTPLYRRATNEGIQLFLAGSAGLLQTTEDVRFEPCPGLTAAGRGVVSPENIAFTRWLTHLQDGVLLDEQNCLMLHELWLQSGTGRRRWEELPDDARESITALFTPKRGDWCDIWSNEDVSVWWNRLCDNVLPEKTMPFDLLTVLSTRLDVEVNGFNGGVLNGVPSAYHWYTEQYGVKWPCGYEVNISSQGDNFIQVDFDTPWCQPESDVIAVLSRRFSCMLEHWYAGQGCNFCGWQRYERGELVDVLWGELEWSSPTDDDELPEVTAPEWIVDKVAHYGGEGHHHHHH”, the “soluble on expression in E. coli” value is reported as “not soluble”. In the case of “MGSDKIHHHHHHLSREARYLEEARGFYQSGKFSSAGIYARKVIRREPSNGEAQALLGHLAFRSGEHQEAMSCYLKAQAAGFQDQELRLNLVTLHERREAFFDAVNLLRELVEETPQDLSLQLRLGINASRTGDMTTAESALLAALAGDEQAAQASLNLGHVYKAKGDTDKAAAFYHDYIRLAPSQQATAYWSLADLKNYRFTEQDEAALKANIAAEEFSQASQSLFHFALNRVYEQRKQGEQAFDAVRMANQLMRPLRPFKREAFTRLVDSLKSAEVKPRGEETSGPWTPIFIVGMPRSGTTLCEQILASHSQIAATDELPFMERLALSLEMKGGYGAMLPRLSEEQIAQMRQQYIEQVNQYLKAQGEASPSLVPSLVIDKNPNNFIHIGLIKTLFPEAKIINVIRDARDNAMGVYKQHFSHGHDYSYHLDDICHYWQLYLELMAHWQQAYGDSLYHLCFEQLVKAPDQQIPAMVDYVGLALEPACLKFYESKRSVLTPSASQVRRPMNVKAIGQSEAYAAFIPNAYRTLTVIADRAHKSFLS”, the “soluble on expression in E. coli” value is reported as “not soluble”. For “LPDLRRRVLSGPLFAWFQKVLPPMSDTEREAIEAGTVWWDGELFSGRPDWQKLLDYPKAQLTEEEQAFVDGPTEELCAMVSDWDIGQRMDLPEEAWAFIKQHGFFGLIIPKEYGGKGFSAFAHSQVVMKLATRSGDLASTVMVPNSLGPAELLLHYGTDEQRQRYLPSLAKGDDIPCFALTGPYAGSDAGGMTDVGIVCKGEWEGREVLGLRLTWEKRYITLGPVATLLGLAFKCHDPDHLLGDEEDLGITLALIPTDTPGVEIGRRHVPLGAAFMNGPNSGKDVFVPLEYIIGGQEMIGKGWMMLMNCLSVGRSISLPAVGTSAGKASSYVSGRYAQVREQFNVPIAAFEGIQEALARIGGNAWLMDSARILTANAVDLGEKPSVLSAILKYHLTERGRECIAHAMDIHGGKGIIMGPNNYLGRSWQGAPIFITVEGANILSRNLMIFGQGAIRCHPYVLKEMELAQREDKDQAAREFDA”, the “soluble on expression in E. coli” value was “not soluble”. In the case of “MTDDRVEQVLEAARRLVAAFARNDAEAYFAAFSEDASFIFHNWPQPLRSRAAYRKLWERWRREDGFEVLACESSNTCVSLQGDLAIFSHDVATRLRLQGTESLNRERETILFRLEQQEGRWLACHEHLSAMPEYLPSTS”, the “soluble on expression in E. coli” value is reported as “not soluble”. In the case of “MQKETWRFIDSGNASPAFNMALDEALLYWHSEKKIPPVIRFYGWNPATLSVGYFQNIKKEINFEAVHKYNLGFVRRPTGGRGVLHDQELTYSVIVSEEHPEMPATVTEAYRVISEGILQGFRNLGLDAYFAIPRTEKEKESLKNPRSSVCFDAPSWYELVVEGRKVAGSAQTRQKGVILQHGSILLDLDEDKLFDLFLYPSERVRERMQRNFKNKAVAINELIEKRVTMDEARKAFKEGFETGLNIHLEPYELSQEELDFVHHLAETKYASDEWNYKRMAGDPLEHHHHHH”, the “soluble on expression in E. coli” value is reported as “not soluble”. For “MRLPPMLDNLTRMARMNDNQHRFALSDLYRFVNGPWLDSHVIPEDRGVDGIFHGLRDRAEEDVHTIVMDSADSLAGKLYASFMDTEGIESAGVAALDKDLTLIDVATVPEFVQALGALDRVGVGGPVGFWVAKDSAGDKSVAYIMQSGITLPDEAYYREESHAQTREAYQKHVEKMLGFLAPEQLGTTPIDAATRILALETDIAAAHWDVVQRRDAVKTFNPTEMAELPPQVAALLRAAGLPEHRVISMMPSYFEALESLLTPQRLDDWKLLTTWRILHSRAGVLTPEISRADFEFFGTTLSGATQQRDRWKRALGLAESFVGEEIGALYVERHFPESSKKDMLSLVSYLIEAYRERISGLSWMTPETRERALDKLDKFNAKIGYPDSWRSYAGLEFSAKGTDLL”, the “soluble on expression in E. coli” value was “not soluble”. For “ADEVAQTLAKVLTESSMPRENLLLSSFSHDVIRALYQHCEGYRLGVLSEFFTKKDGLLLDEVKAYSCNLNINWVRSRQIIKLQEAGYKVMCYTVNNPNKLKHLPQLDGIFSDHPKRFMQ”, the “soluble on expression in E. coli” value was “not soluble”. For “MGSDKIHHHHHHMLSKDPRLYAFRDDLADKRFETEITAQRFIQGEKKRVNTAVAGLFKENNKKSEKQTECLLGEELLIFEQGKTMSWGQSLKDGYVGYIDTTILCTSAIKQTHIVSVPRTFQYLQADLRGPMEYPLSMGSKVSVVDETEVRGTIYAILESGKAIITRHLSPIGRVYEDYVTVAETLIHTPYLWGGVSGFGIDCSGLVQLSMMMTGKMVLRDTDMQQKTIGRVLTDSDKLKRGDLVFWNGHVAIMIDHENIIHANGYSMDVMIEPLEEAVTRIAKKYQYPIEKRRPIQEM”, the “soluble on expression in E. coli” value was “not soluble”. With “AHHHHHHGSERAFIEWYPRGYGVAFKIKKKIYEKLSKYQKIEVYETEGFGRLLALDGTVQLVTLGERSYHEPLVHPAMLAHPKPKRVLVIGGGDGGTVREVLQHDVDEVIMVEIDEDVIMVSKDLIKIDNGLLEAMLNGKHEKAKLTIGDGFEFIKNNRGFDVIIADSTDPVGPAKVLFSEEFYRYVYDALNNPGIYVTQAGSVYLFTDELISAYKEMKKVFDRVYYYSFPVIGYASPWAFLVGVKGDIDFTKIDRERAKKLQLEYYDPLMHETLFQMPKYIRETLQRL” the “soluble on expression in E. coli” value was “soluble”. With “MGSDKIHHHHHHMKIHPIPPLQCLVFFDAAARHGNFTRAAEELNVTQGAVSKQVVKLESYLGMQLFVRDAKALHLTRAGQTYAGRIHDMLTGCAEATALVMKEPSPHSITIACASGTAGMFLTPIIADFSHEYPNVAIRILVREGVFNLNPAEFDIGVYYIRDVPPPGMSGIRIIEEEVQAYCAPSYLGRRRVSPHELTNVTLLVAEEQQRQWMSWRDWFHLCDSEIAYKPSRTITANSYPVLLQLALRGHGVLLGWNQMITPLVERSDLVLASDASASFGGAYQLVWPDDRRDTAAVTHFREWLLKRVPWKG” the “soluble on expression in E. coli” value was “not soluble”.
